Laboratory results: US20070134256A1

B1: chimpanzee Fab 1A5 (Fab, V domains shown)
VH: EVQLLESGGGLVQPGGSRRLSCAASGFTISDNVMHWVRQAPGKGLEWVALIYSADTTHYADSVKGRFTISRDNSKNTLYLQMDSLRPEDTAVYYCAREYCTGDTCFAHFDYWGQGTLVSVSS
VL: ELQMTQSPSSVSASVGDTVTIACRASQSITNYLSWYQQKPGKAPKLLIYHASTLQSGIPSRFSGSGSGTDFTLTISSLQPDDFATYYCHYGYGTHTFGQGTKLEIKRT

Experiments:
[1] = molecular target: DENV-2 antigenic variant NGC-V2 (dengue type 2 virus), P14340; assay: cell-based or functional assay
[2] = molecular target: chimpanzee Fab 1A5; assay: competition ELISA: Fab 1A5 (1.04 nM) pre-incubated with peptide in serial dilution, then binding to DENV-2 coated wells

Binder | PRNT50 titer [1] [µg/mL] | IC50 [2] [µM]
B1 | > 70 | 
DRGWGNGSGLFGKGG (modifications not checked) [fusion peptide …] |  | 170
